Measured values published in patent US20060228367A1 (AstraZeneca / MedImmune, published 2006).
Substitutions are numbered along the chain they refer to. Like-named read-outs stand apart in the source and are kept apart here.

Legend:
[1] = target: T1, soluble histidine-tagged hMPV F protein from NL\1\99 (human metapneumovirus, isolate NL/1/99, UniProt Q6WB98 19-490); test: Biacore SPR; F-99-1 immobilised at 80 RU, mAb injected
T1 construct: also called sFNL\1\99; soluble FNL\1\99

[2] = target: T2, F protein of hMPV strain NL\1\94 (subtype B2), on virus (human metapneumovirus, isolate NL/1/94, UniProt Q6WB98 19-539); test: cell-based or functional assay
[3] = target: T3, F protein of hMPV strain NL\1\99 (subtype B1), on virus (human metapneumovirus, isolate NL/1/99, UniProt Q6WB98 19-539); test: cell-based or functional assay
[4] = target: T4, F protein of hMPV strain NL\1\00 (subtype A1), on virus (human metapneumovirus, isolate NL/1/00, UniProt Q6WB98 19-538); test: cell-based or functional assay
[5] = target: T5, F protein of hMPV strain NL\17\00 (subtype A2), on virus (human metapneumovirus, isolate NL/17/00, UniProt Q6WB98 19-539); test: cell-based or functional assay
[6] = target: T3, F protein of hMPV strain NL\1\99 …; test: cell-based or functional assay; remark: listed apart in the source
[7] = target: T4, F protein of hMPV strain NL\1\00 …; test: cell-based or functional assay; remark: listed apart in the source
[8] = target: T2, F protein of hMPV strain NL\1\94 …; test: cell-based or functional assay; remark: listed apart in the source
[9] = target: T3, F protein of hMPV strain NL\1\99 …; test: cell-based or functional assay; remark: listed apart in the source
[10] = target: T4, F protein of hMPV strain NL\1\00 …; test: cell-based or functional assay; remark: listed apart in the source
[11] = target: T5, F protein of hMPV strain NL\17\00 …; test: cell-based or functional assay; remark: listed apart in the source
[12] = target: T1, soluble histidine-tagged hMPV F protein …; test: Biacore 3000 SPR; antigen immobilised on CM5 at 80 RU, mAb injected
[13] = target: T1, soluble histidine-tagged hMPV F protein …; test: Biacore SPR; average of the two F-99-1 surfaces
[14] = target: T6, soluble histidine-tagged hMPV F protein from NL\1\00 (human metapneumovirus, isolate NL/1/00, UniProt Q6WB98 19-490); test: Biacore SPR; F-00-1 immobilised at 134 RU, mAb injected
T6 construct: the reverse primer ends the F part at ...AEKGNTG before the tag; also called sFNL\1\00; soluble FNL\1\00

[15] = target: T2, F protein of hMPV strain NL\1\94 …; test: cell-based or functional assay; remark: listed apart in the source
[16] = target: T3, F protein of hMPV strain NL\1\99 …; test: cell-based or functional assay; remark: listed apart in the source
[17] = target: T4, F protein of hMPV strain NL\1\00 …; test: cell-based or functional assay; remark: listed apart in the source
[18] = target: T5, F protein of hMPV strain NL\17\00 …; test: cell-based or functional assay; remark: listed apart in the source
[19] = target: T6, soluble histidine-tagged hMPV F protein …; test: Biacore 3000 SPR; antigen immobilised on CM5 at 134 RU, mAb injected
[20] = target: T1, soluble histidine-tagged hMPV F protein …; test: Biacore SPR; F-99-1 immobilised at 300 RU, mAb injected
[21] = target: T6, soluble histidine-tagged hMPV F protein …; test: Biacore SPR (summary table)
[22] = target: T1, soluble histidine-tagged hMPV F protein …; test: Biacore SPR (summary table)
[23] = target: T1, soluble histidine-tagged hMPV F protein …; test: Biacore SPR (comparison table; virus type B)
[24] = target: T6, soluble histidine-tagged hMPV F protein …; test: Biacore SPR (comparison table; virus type A)
[25] = target: T1, soluble histidine-tagged hMPV F protein …; test: Biacore SPR; F-99-1 immobilised at 146 RU, mAb injected

B1: monoclonal antibody 168-A5-338-284 (antibody, V domains shown)
VH: QVQLKESGPGLVAPSQSLSITCTVSGFSLSSYGVHWVRQSPGKGLEWLGVMWGDGSTNYHSGLISRLTISKDSSKSQVFLKLNSLQTDDTATYYCGKSFGVYAVDYWGQGTSVTVSS
VL: DIQMTQTTSSLSASLGDRVTINCRASQDVNNYLNWYQQKPDGTVKLLIYYTSMLHSGVPSRFSGSGSETDYSLTITNLEQEDIATYFCQQGETLPPTFGGGTKVEIK
notes: Mouse hybridoma antibody purified on protein A; also called mAb338
Kd [1]: 1.42 nM | koff [1]: 0.000272 s⁻¹ | kon [1]: 192000 M⁻¹ s⁻¹ | IC50 (virus neutralization) [2]: 0.17 µg/mL | IC50 (virus neutralization) [3]: 0.03 µg/mL | IC50 (virus neutralization) [4]: 0.38 µg/mL | IC50 (virus neutralization) [5]: 0.8 µg/mL | IC50 in vitro neutralization [6]: 0.03 µg/mL | IC50 in vitro neutralization [7]: 0.4 µg/mL | IC50 (neutralization titer) [8]: 0.165 µg/mL | IC50 (neutralization titer) [9]: 0.03 µg/mL | IC50 (neutralization titer) [10]: 0.375 µg/mL | IC50 (neutralization titer) [11]: 0.81 µg/mL | Kd [12]: 1.42 nM | koff [12]: 0.000272 s⁻¹ | kon [12]: 192000 M⁻¹ s⁻¹ | Kd [13]: 1.73 nM | koff [13]: 0.000282 s⁻¹ | kon [13]: 163000 M⁻¹ s⁻¹ | Kd [14]: 1.74 nM | koff [14]: 0.000276 s⁻¹ | kon [14]: 158000 M⁻¹ s⁻¹ | IC50 (neutralization titer) [15]: 1.1 nM | IC50 (neutralization titer) [16]: 0.2 nM | IC50 (neutralization titer) [17]: 2.5 nM | IC50 (neutralization titer) [18]: 5.4 nM | Kd [19]: 1.74 nM | koff [19]: 0.000276 s⁻¹ | kon [19]: 158000 M⁻¹ s⁻¹ | Kd [20]: 2.18 nM | koff [20]: 0.000293 s⁻¹ | kon [20]: 134000 M⁻¹ s⁻¹ | Kd [21]: 1.7 nM | Kd [22]: 1.4 nM | Kd [23]: 1.42 nM | kon [23]: 192000 M⁻¹ s⁻¹ | Kd [24]: 1.74 nM | kon [24]: 158000 M⁻¹ s⁻¹

B2: monoclonal antibody 168-A5-234-114 (antibody, V domains shown)
VH: B1 VH with S30T, S31D, H35S, S40P, M51I, S56N, G62A, T68S, S73N, V104M
VL: B1 VL with D1E, A25T, V29T, L33I, E68G, T76S, E92D
notes: Mouse hybridoma antibody purified on protein A; also called mAb234; mAb 234
Kd [1]: 2.41 nM | koff [1]: 0.000463 s⁻¹ | kon [1]: 192000 M⁻¹ s⁻¹ | IC50 (virus neutralization) [2]: 0.18 µg/mL | IC50 (virus neutralization) [3]: 0.01 µg/mL | IC50 (virus neutralization) [4]: 0.59 µg/mL | IC50 (virus neutralization) [5]: 1.2 µg/mL | IC50 in vitro neutralization [6]: 0.01 µg/mL | IC50 in vitro neutralization [7]: 0.6 µg/mL | IC50 (neutralization titer) [8]: 0.18 µg/mL | IC50 (neutralization titer) [9]: 0.0075 µg/mL | IC50 (neutralization titer) [10]: 0.585 µg/mL | IC50 (neutralization titer) [11]: 1.16 µg/mL | Kd [12]: 2.41 nM | koff [12]: 0.000463 s⁻¹ | kon [12]: 192000 M⁻¹ s⁻¹ | Kd [13]: 2.83 nM | koff [13]: 0.000382 s⁻¹ | kon [13]: 135000 M⁻¹ s⁻¹ | Kd [14]: 4.49 nM | koff [14]: 0.000352 s⁻¹ | kon [14]: 78300 M⁻¹ s⁻¹ | IC50 (neutralization titer) [15]: 1.2 nM | IC50 (neutralization titer) [16]: 0.05 nM | IC50 (neutralization titer) [17]: 3.9 nM | IC50 (neutralization titer) [18]: 7.7 nM | Kd [19]: 4.49 nM | koff [19]: 0.000352 s⁻¹ | kon [19]: 78300 M⁻¹ s⁻¹ | Kd [25]: 3.83 nM | koff [25]: 0.000302 s⁻¹ | kon [25]: 78900 M⁻¹ s⁻¹ | Kd [21]: 4.5 nM | Kd [22]: 2.4 nM | Kd [23]: 2.41 nM | kon [23]: 192000 M⁻¹ s⁻¹ | Kd [24]: 4.49 nM | kon [24]: 783000 M⁻¹ s⁻¹
